± gives the uncertainty stated by the source.
Experiment: self-splicing fitness, log relative to wild type (ln ratio); higher = more splicing; Tetrahymena group I intron in knt gene, E. coli kanamycin selection, DiMSum; sequences stand for … in CUCUCU…GGAGGGAAAAGUUAUCAGGCAUGCACCUGGUAGCUAGUCUUUAAACCAAUAGAUUGCAUCGGUUUAAAAGGCAAGACCGUCAAAUUGCGGGAAAGGGGUCAACAGCCGUUCAGUACCAAGUCUCAGGGGAAACUUUGAGAUGGCCUUGCAAAGGGUAUGGUAAUAAGCUGACGGACAUGGUCCUAACCACGCAGCCAAGUCCUAAGUCAACAGAUCUUCUGUUGAUAUGGAUGCAGUUCACAGACUAAAUGUCGGUCGGGGAAGAUGUAUUCUUCUCAUAAGAUAUAGUCGGACCUCUCCUUAAUGGGAGCUAGCGGAUGAAGUGAUGCAACACUGGAGCCGCUGGGAACUAAUUUGUAUGCGAAAGUAUAUUGAUUAGUUUUGGAGUACUCGUGGUCG
Method in brief: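 Colonies from six replicate transformations of E. coli BL21(DE3) were pooled and amplicon-sequenced on an Illumina HiSeq 2500. The library placed an intron with all eight P1ex-region nucleotides randomised inside the knt kanamycin-resistance gene on pET-22b(+), and cells grew overnight at 37°C or 30°C on LB agar with or without 25 μg/mL kanamycin (plus 100 μg/mL carbenicillin, 50 μM IPTG, 0.2% rhamnose). Fitness is the DiMSum error-weighted combination of wild-type-normalised replicate fold changes, kanamycin versus none.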

Row | Sequence | self-splicing fitness (ln) (37 °C) | self-splicing fitness (ln) (30 °C)
1 | UUGUAGCAAUAUUACGAGGG | -1.87 ± 0.4 | –
2 | UUGUAGCAAUAUUACGAUCA | -0.00925 ± 0.14 | -0.608 ± 0.19
3 | UUGUAGCAAUAUUACGCCGA | -0.628 ± 0.24 | -0.677 ± 0.23
4 | UUGUAGCAAUAUUACGCCGG | -0.179 ± 0.27 | -0.988 ± 0.16
5 | UUGUAGCAAUAUUACGGAAA | -1.2 ± 0.22 | -2.55 ± 0.39
6 | UUGUAGCAAUAUUACGGCAA | -0.27 ± 0.16 | -0.208 ± 0.12
7 | UUGUAGCAAUAUUACGGCUA | 0.21 ± 0.5 | –
8 | UUGUAGCAAUAUUACGGCUG | -0.373 ± 0.22 | -2.35 ± 0.23
9 | UUGUAGCAAUAUUACGGGAG | -2.84 ± 0.4 | –
10 | UUGUAGCAAUAUUACGGUGA | -0.318 ± 0.097 | -1.11 ± 0.093
11 | UUGUAGCAAUAUUACGGUUU | -1.79 ± 0.17 | -3.53 ± 0.24
12 | UUGUAGCAAUAUUACGUACC | -1.29 ± 0.17 | -2.08 ± 0.16
13 | UUGUAGCAAUAUUACGUAGA | -1.23 ± 0.12 | -2.75 ± 0.13
14 | UUGUAGCAAUAUUACGUCUA | -0.738 ± 0.11 | -0.856 ± 0.086
15 | UUGUAGCAAUAUUACGUCUC | -1.75 ± 0.18 | -3.54 ± 0.17
16 | UUGUAGCAAUAUUACGUGAA | -0.614 ± 0.14 | -1.87 ± 0.14
17 | UUGUAGCAAUAUUACGUGUG | -1.17 ± 0.11 | -1.28 ± 0.17
18 | UUGUAGCAAUAUUACGUUGA | -0.294 ± 0.19 | -2.95 ± 0.29
19 | UUGUAGCAAUAUUACGUUGC | -2.29 ± 0.46 | –
20 | UUGUAGCAAUAUUACGUUUC | – | -3.69 ± 0.46
21 | UUUAAGCAAUAUUACGAAAA | -1.33 ± 0.2 | -0.789 ± 0.19
22 | UUUAAGCAAUAUUACGACUA | -0.0992 ± 0.096 | 0.0508 ± 0.11
23 | UUUAAGCAAUAUUACGAGAA | -0.298 ± 0.28 | -1.62 ± 0.33
24 | UUUAAGCAAUAUUACGAGAC | -2.63 ± 0.33 | -2.33 ± 0.48

Row | Sequence | self-splicing fitness (ln) (37 °C) | self-splicing fitness (ln) (30 °C)
25 | UUUAAGCAAUAUUACGAGGA | -1.22 ± 0.15 | -1.85 ± 0.13
26 | UUUAAGCAAUAUUACGAUGG | -0.525 ± 0.14 | -1.05 ± 0.11
27 | UUUAAGCAAUAUUACGCAGA | -1.93 ± 0.14 | -1.64 ± 0.16
28 | UUUAAGCAAUAUUACGCAUC | -2.25 ± 0.32 | -2.75 ± 0.36
29 | UUUAAGCAAUAUUACGCCGA | 0.0683 ± 0.15 | -0.292 ± 0.13
30 | UUUAAGCAAUAUUACGCUCU | -0.539 ± 0.11 | -1.26 ± 0.098
31 | UUUAAGCAAUAUUACGGCAA | 0.00377 ± 0.11 | -0.171 ± 0.093
32 | UUUAAGCAAUAUUACGGCGA | 0.503 ± 0.1 | 0.000504 ± 0.075
33 | UUUAAGCAAUAUUACGGCUA | 0.291 ± 0.1 | -0.342 ± 0.084
34 | UUUAAGCAAUAUUACGGUCU | -1.66 ± 0.15 | -2.5 ± 0.14
35 | UUUAAGCAAUAUUACGUCAA | -0.273 ± 0.14 | -1.43 ± 0.16
36 | UUUAAGCAAUAUUACGUCCA | -0.324 ± 0.27 | -1.08 ± 0.22
37 | UUUAAGCAAUAUUACGUGCA | -0.0552 ± 0.15 | -1.06 ± 0.12
38 | UUUAAGCAAUAUUACGUUAA | -1.38 ± 0.18 | -1.68 ± 0.23
39 | UUUAAGCAAUAUUACGUUCA | -0.403 ± 0.12 | -1.08 ± 0.11
40 | UUUCAGCAAUAUUACGAACA | 0.793 ± 0.22 | -0.771 ± 0.13
41 | UUUCAGCAAUAUUACGAACU | 0.244 ± 0.1 | -1.23 ± 0.092
42 | UUUCAGCAAUAUUACGAAGA | -0.0649 ± 0.25 | -0.653 ± 0.24
43 | UUUCAGCAAUAUUACGAAGG | -2.34 ± 0.28 | -2.18 ± 0.15
44 | UUUCAGCAAUAUUACGAAUG | -0.0774 ± 0.12 | -0.511 ± 0.086
45 | UUUCAGCAAUAUUACGAGAU | -2.72 ± 0.48 | –
46 | UUUCAGCAAUAUUACGAUAC | -2.02 ± 0.26 | -2.17 ± 0.25
47 | UUUCAGCAAUAUUACGAUAG | -0.323 ± 0.11 | -0.323 ± 0.088
48 | UUUCAGCAAUAUUACGAUCC | -0.887 ± 0.39 | –

Row | Sequence | self-splicing fitness (ln) (37 °C) | self-splicing fitness (ln) (30 °C)
49 | UUUCAGCAAUAUUACGAUGC | -2.01 ± 0.29 | -3.68 ± 0.28
50 | UUUCAGCAAUAUUACGCCAA | -0.379 ± 0.18 | -0.879 ± 0.18
51 | UUUCAGCAAUAUUACGCGCA | 0.569 ± 0.12 | -0.226 ± 0.11
52 | UUUCAGCAAUAUUACGCUAC | -2.39 ± 0.34 | -2.95 ± 0.22
53 | UUUCAGCAAUAUUACGGACG | 0.598 ± 0.23 | -0.348 ± 0.18
54 | UUUCAGCAAUAUUACGGAGC | -3.28 ± 0.43 | -3.25 ± 0.36
55 | UUUCAGCAAUAUUACGGCAG | 0.0981 ± 0.19 | -0.779 ± 0.17
56 | UUUCAGCAAUAUUACGGCGG | -0.833 ± 0.18 | -1.72 ± 0.15
57 | UUUCAGCAAUAUUACGGCGU | -0.454 ± 0.14 | -2.37 ± 0.14
58 | UUUCAGCAAUAUUACGGGAU | -1.64 ± 0.13 | -2.73 ± 0.12
59 | UUUCAGCAAUAUUACGUAAG | 0.394 ± 0.13 | -0.33 ± 0.087
60 | UUUCAGCAAUAUUACGUCAA | -0.056 ± 0.097 | -1.19 ± 0.1
61 | UUUCAGCAAUAUUACGUCAC | -2.86 ± 0.35 | -3.13 ± 0.43
62 | UUUCAGCAAUAUUACGUGUC | -2.04 ± 0.15 | -3.73 ± 0.18
63 | UUUCAGCAAUAUUACGUUUA | -0.334 ± 0.13 | -1.34 ± 0.11
64 | UUUGAGCAAUAUUACGAAUU | -2.01 ± 0.3 | -2.47 ± 0.23
65 | UUUGAGCAAUAUUACGACUC | -2.37 ± 0.41 | -2.58 ± 0.44
66 | UUUGAGCAAUAUUACGAGGA | -3.55 ± 0.46 | -3.62 ± 0.28
67 | UUUGAGCAAUAUUACGAUGU | -2.34 ± 0.39 | -3.05 ± 0.3
68 | UUUGAGCAAUAUUACGCCGG | 0.228 ± 0.38 | -2.04 ± 0.35
69 | UUUGAGCAAUAUUACGCCUG | -1.21 ± 0.38 | -2.85 ± 0.27
70 | UUUGAGCAAUAUUACGCUAA | – | -1.08 ± 0.41
71 | UUUGAGCAAUAUUACGCUUC | -2.53 ± 0.44 | -2.18 ± 0.31
72 | UUUGAGCAAUAUUACGCUUU | -1.59 ± 0.22 | –

Row | Sequence | self-splicing fitness (ln) (37 °C) | self-splicing fitness (ln) (30 °C)
73 | UUUGAGCAAUAUUACGGCAG | -1.56 ± 0.21 | -1.6 ± 0.17
74 | UUUGAGCAAUAUUACGGGAG | -1.99 ± 0.19 | -3.55 ± 0.28
75 | UUUGAGCAAUAUUACGGUGC | -2.2 ± 0.33 | -2.74 ± 0.47
76 | UUUGAGCAAUAUUACGUGAA | -1.82 ± 0.17 | -1.97 ± 0.17
77 | UUUGAGCAAUAUUACGUUCU | -2.58 ± 0.25 | -3.55 ± 0.32
78 | UUUUAGCAAUAUUACGAAAA | -0.0479 ± 0.18 | -1.13 ± 0.17
79 | UUUUAGCAAUAUUACGACAA | -0.125 ± 0.17 | -0.409 ± 0.15
80 | UUUUAGCAAUAUUACGAUUA | 0.0391 ± 0.13 | -0.349 ± 0.16
81 | UUUUAGCAAUAUUACGCACA | -0.107 ± 0.19 | -0.201 ± 0.21
82 | UUUUAGCAAUAUUACGCAUA | -0.671 ± 0.21 | -1.52 ± 0.27
83 | UUUUAGCAAUAUUACGCCGA | -0.282 ± 0.32 | -1.15 ± 0.29
84 | UUUUAGCAAUAUUACGCGGG | -0.801 ± 0.17 | -0.691 ± 0.17
85 | UUUUAGCAAUAUUACGCUAC | -2.79 ± 0.31 | –
86 | UUUUAGCAAUAUUACGCUGG | -2.88 ± 0.44 | -3.74 ± 0.39
87 | UUUUAGCAAUAUUACGGAAU | -2.48 ± 0.4 | –
88 | UUUUAGCAAUAUUACGGACC | -0.175 ± 0.33 | -2.44 ± 0.4
89 | UUUUAGCAAUAUUACGGAUA | -1.21 ± 0.4 | -1.07 ± 0.33
90 | UUUUAGCAAUAUUACGGCUU | -0.826 ± 0.2 | -1.98 ± 0.17
91 | UUUUAGCAAUAUUACGGGAA | -1.19 ± 0.13 | -1.16 ± 0.16
92 | UUUUAGCAAUAUUACGGGGG | -2.25 ± 0.31 | -3.07 ± 0.41
93 | UUUUAGCAAUAUUACGGUAA | -0.884 ± 0.14 | -1.94 ± 0.2
94 | UUUUAGCAAUAUUACGUCCA | -0.545 ± 0.19 | -1.59 ± 0.22
95 | UUUUAGCAAUAUUACGUUUG | -0.497 ± 0.12 | -1.6 ± 0.082
96 | UUUUAGCAAUAUUACGUUUU | -2.22 ± 0.27 | -3.49 ± 0.21
